Here are results for four molecules from PMC4367809 (2015).

The term Kd denotes a measure of binding affinity in units of concentration.

In one assay the target is actin (ATP-actin:GS1) (Oryctolagus cuniculus, UniProt P68135). Briefly: ITC.
Assay [1] concerns the target actin filament pointed end (Oryctolagus cuniculus, UniProt P68135). Briefly: pointed end elongation assay.

B1: Tropomodulin-1 ABS2 160-349 (protein)
chain: GLNSVIKPTQYKPVPDEEPNSTDVEETLERIKNNDPKLEEVNLNNIRNIPIPTLKAYAEALKENSYVKKFSIVGTRSNDPVAYALAEMLKENKVLKTLNVESNFISGAGILRLVEALPYNTSLVEMKIDNQSQPLGNKVEMEIVSMLEKNATLLKFGYHFTQQGPRLRASNAMMNNNDLVRKRRLADLTG
modifications: actin in complex with gelsolin segment 1, ATP
B1 registered a dissociation constant (Kd) in the assay with actin (ATP-actin:GS1) of 10.5 µM.

B2: Tropomodulin-1 (protein)
chain: MSYRRELEKYRDLDEDEILGALTEEELRTLENELDELDPDNALLPAGLRQKDQTTKAPTGPFKREELLDHLEKQAKEFKDREDLVPYTGEKRGKVWVPKQKPLDPVLESVTLEPELEEALANASDAELCDIAAILGMHTLMSNQQYYQALSSSSIMNKEGLNSVIKPTQYKPVPDEEPNSTDVEETLERIKNNDPKLEEVNLNNIRNIPIPTLKAYAEALKENSYVKKFSIVGTRSNDPVAYALAEMLKENKVLKTLNVESNFISGAGILRLVEALPYNTSLVEMKIDNQSQPLGNKVEMEIVSMLEKNATLLKFGYHFTQQGPRLRASNAMMNNNDLVRKRRLADLTGPIIPKCRSGV
modifications: 1 uM tropomyosin, filament seeds capped at barbed end by capping protein
In assay [1], B2 yielded a Kd of 0.028 µM.

B3: Tropomodulin-1 (protein)
chain: B2 chain
modifications: filament seeds capped at barbed end by capping protein
In the case of B3, in assay [1], binding was put at a Kd of 0.108 µM.

B4: Tropomodulin-1 ABS1 50-101 (protein)
chain: QKDQTTKAPTGPFKREELLDHLEKQAKEFKDREDLVPYTGEKRGKVWVPKQK
modifications: actin in complex with gelsolin segment 1, ATP
The molecule B4 registered a Kd with actin (ATP-actin:GS1) of 7.5 µM.
